Test system: Human induced pluripotent stem cells (hiPSCs)
Test: RPE-specific markers expression in hiPSCs differentiated into RPE cells (RTqPCR; FACS)
Type: cell-based
Experimental: Day 0: overall undifferentiated and tight hiPSC morphology was confirmed to be at close to 100% confluency. Otherwise, the cells were fed once more with 4 ml prewarmed iPS Brew medium and instead differentiation was initiate the next day. KSR medium (4 ml needed per 6-well), PD0325901 (PD)/SB431542 (SB)/dorsomorphin (DM) aliquots, as well as Activin A were prepared and/or prewarmed. After thawing and thoroughly mixing all reagents, […] (1:1000 from 1 mM stock), […] (1:2000 from 10 mM stock), […] (1:2000 from 0.5 mM stock) and […] (1:400 from 10 μg/ml stock) were added to 4 ml KSR medium per confluent hiPSC culture well, after vigorously agitating culture plates and completely soaking off iPS Brew medium.
Days 1 and 2: media was prepared as above and old medium replaced on culture wells by 4 ml fresh differentiation medium per well, following vigorous agitation and complete media aspiration.
Day 3: KSR medium with Activin A only was prepared and old medium was replaced on culture wells by 4 ml fresh ActA-only differentiation medium per well, following vigorous agitation and complete media aspiration.
Day 4: fresh KSR+ActA differentiation medium was prepared and feed with 8 ml per well.
Second week: cells were fed daily with 4 ml per 6-well and 8 ml over the weekend.
Third and fourth weeks: no more small molecules were applied during the third and fourth weeks of differentiation. Only Activin A was added to basal media (either KSR or B27 medium) Activin A was added daily to prewarmed basal media, and old medium replaced on cells (1:100 thoroughly mixed).
Day 29 (week 5): newly coated dishes were prepared by coating 12-well (5 μl) or 6-well format (12 μl iM) with 4 x iMatrix-511 in PBS for 1 h at 37° C. KSR medium was prepared and prewarmed for splitting procedure. Differentiated cells were washed with PBS once (4 ml) or twice (2×2 ml), then 1 ml prewarmed TrypLE Se-lec was added. Cells were dissociated using a 1 ml pipette by pipetting up and down several times and results were checked under the microscope. Cell suspension was transferred to 15 ml tube and centrifuged at 300 g for 2 min. A portion of the cells was transferred into a 1.5 ml tube for downstream FACS and/or RT-qPCR analysis. Cells were resuspended in an appropriate amount of KSR medium and cell titer was determined using a Neubauer chamber. 400,000 cells per cm^2 were plated out in 6-well (with 4 ml KSR medium with or without Activin A24) or 12-well format (2 ml medium).
Samples to be analyzed by RT-qPCR were cells directly lysed from culture wells using RA1 buffer from the RNA isolation kit. […] RNA concentration was measured on NanoDrop monitoring A260/280 and A260/230 ratios. […]

B1: Activin A (protein, UniProt P08476 311-426, looked up)
Inhibin beta A chain: GLECDGKVNICCKKQFFVSFKDIGWNDWIIAPSGYHANYCEGECPSHIAGTSGSSLSFHSTVINHYRMRGHSPFANLKSCCVPTKLRPMSMLYYDDGQNIIKKDIQNMIVEECGCS
modifications: homodimer
notes: member of the TGFβ family of proteins; disulfide-linked homodimer (two beta-A chains)
B1 was tested, and the RPE gene expression (Activin A treatment initiated after signaling inhibition (PSD then A) vs standard simultaneous protocol, FIG. 6) was “reduced RPE gene expression”, the “induction of RPE cell fate” value (RTqPCR (OTX2, MITF, PMEL), complete withdrawal of the three small molecules, FIG. 5) was “insufficient for inducing RPE cell fate” and the “induction of the RPE phenotype” value (RTqPCR of RPE-specific markers, non-treated vs Activin A only vs PSD+A, FIG. 2C) was “not sufficient to induce the RPE phenotype”. The RPE induction (titration of Activin A: concentration below 20 ng/ml or complete withdrawal, FIG. 7) was “inferior RPE induction”.

Reference: patent US20230365929A1, “METHOD OF DIFFERENTIATION OF PLURIPOTENT STEM CELLS TO RETINAL PIGMENT EPITHELIUM CELLS” (R.P. SCHERER TECHNOLOGIES, LLC, priority 2022, published 2023)
